Assay results: article PMC6168461, “Molecular architecture and regulation of BCL10-MALT1 filaments” (Nature Communications, 2018)

B1: human BCL10 (full length), GST-tag removed (natural protein, UniProt O95999 1-233, looked up)
chain: MEPTAPSLTEEDLTEVKKDALENLRVYLCEKIIAERHFDHLRAKKILSREDTEEISCRTSSRKRAGKLLDYLQENPKGLDTLVESIRREKTQNFLIQKITDEVLKLRNIKLEHLKGLKCSSCEPFPDGATNNLSRSNSDESNFSEKLRASTVMYHPEGESSTTPFFSTNSSLNLPVLEVGRTENTIFSSTTLPRPGDPGAPPLPPDLQLEEEGTCANSSEMFLPLRSRTVSRQ
notes: BCL10 (B cell lymphoma 10), human, full length; Forms helical filaments together with MALT1 (T29-G722); only residues 10-115 are modelled in the map; also called B cell lymphoma 10; BCL10 wt; not shown: GST, N-terminal, cleaved

Columns and labels:
[1] = target: human BCL10 (full length), GST-tag removed (human) (UniProt O95999); assay: cryo-EM structure; helical filaments of BCL10 (full length)-MALT1 (T29-G722); complex at 1 mg/ml, PreScission protease overnight at 12 °C, filaments separated by SEC; core map at 4.9 Å, whole assembly at 5.9 Å
[2] = target: the molecule itself; assay: as above

Row | Molecule | stoichiometry N [1] | binding result [2]
1 | human MALT1 isoform B (T29-G722), in the filament sample after PreScission treatment (domain or fragment) | 1 | 
2 | B1 |  | binds
